Reference: patent publication US20120213786A1 (ONCOMED PHARMACEUTICALS, published 2012)

T1: recombinant human Notch1 protein (human, UniProt P46531 1426-1731, limits assumed)
T1 construct: also called antigen
T1 sequence (looked up): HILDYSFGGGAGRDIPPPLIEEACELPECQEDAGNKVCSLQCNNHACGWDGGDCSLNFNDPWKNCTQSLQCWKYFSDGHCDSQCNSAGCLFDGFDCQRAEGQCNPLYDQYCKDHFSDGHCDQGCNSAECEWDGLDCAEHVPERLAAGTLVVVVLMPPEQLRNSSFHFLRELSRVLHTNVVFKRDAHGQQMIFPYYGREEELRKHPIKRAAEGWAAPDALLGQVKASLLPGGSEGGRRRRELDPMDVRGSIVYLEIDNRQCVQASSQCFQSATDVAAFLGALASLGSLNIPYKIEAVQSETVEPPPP


Target: T1, recombinant human Notch1 protein
Test: SPR (Biacore 2000), recombinant human Notch1 amine-coupled to CM5 chip, antibody injected, global fit
Protocol: The affinities for human and mouse Notch1 were determined using a Biacore 2000 instrument. Briefly, recombinant human and mouse Notch1 proteins were immobilized on a CM5 chip using standard amine based chemistry (NHS/EDC). Different antibody concentrations were injected over the protein surfaces and kinetic data were collected over time. The data was fit using the simultaneous global fit equation to yield dissociation constants (KD, nM) for each Notch1 (Table 2).

| Kd | Binder |
| --- | --- |
| 4.33 nM | humanized antibody 52M51H4L3 (antibody, human IgG2, lambda, V domains shown, Heavy chain 52M51-H4 (human IgG2 constant region) with light chain 52M51 L3 (human IgLC1 constant region); also called humanized variant of 52M51; ATCC PTA-9549) VH: QVQLVQSGAEVKKPGASVKISCKVSGYTLRGYWIEWVRQAPGKGLEWIGQILPGTGRTNYNEKFKGRVTMTADTSTDTAYMELSSLRSEDTAVYYCARFDGNYGYYAMDYWGQGTTVTVSS VL: SQAVVTQEPSLTVSPGGTVTLTCRSSTGAVTTSNYANWFQQKPGQAPRTLIGGTNNRAPGVPARFSGSLLGGKAALTLSGAQPEDEAEYYCALWYSNHWVFGGGTKLTVLG |
| 7.35 nM | humanized antibody 52M51H4L4 (antibody, human IgG2, lambda, V domains shown, Heavy chain 52M51-H4 (human IgG2 constant region) with light chain 52M51 L4 (human IgLC1 constant region)) VH: QVQLVQSGAEVKKPGASVKISCKVSGYTLRGYWIEWVRQAPGKGLEWIGQILPGTGRTNYNEKFKGRVTMTADTSTDTAYMELSSLRSEDTAVYYCARFDGNYGYYAMDYWGQGTTVTVSS VL: SQTVVTQEPSFSVSPGGTVTLTCRSSTGAVTTSNYANWYQQTPGQAPRTLIGGTNNRAPGVPDRFSGSILGNKAALTITGAQADDESDYYCALWYSNHWVFGGGTKLTVLG |
| 2.86 nM | murine monoclonal antibody 52M51 (antibody, mouse IgG1, V domains shown, Hybridoma-derived mouse antibody; also called anti-Notch1 antibody 52M51; ATCC PTA-9405) VH: QVQLQQSGAELMKPGASVKISCKAAGYTMRGYWIEWIKQRPGHGLEWIGQILPGTGRTNYNEKFKGKATFTADTSSNTANMQLSSLTSEDSAVYYCARFDGNYGYYAMDYWGQGSSVTVSS VL: QAVVTQESALTTSPGETVTLTCRSSTGAVTTSNYANWVQEKPDHLFTGLIGGTNNRAPGVPARFSGSLIGDKAALTITGAQTEDEAIYFCALWYSNHWVFGGGTKLTVLG |
